Laboratory results published in article PMC9968394.

What was measured:
Assay in all cases: SPR; Biacore; anti-OGT VNARs diluted to 100 nM; recombinant ncOGT in PBS at 50, 100, 200, 400 and 800 nM introduced successively; binding 120 s, dissociation 200 s in PBS; Langmuir model fit; who was immobilised is not said
[1] = target: anti-OGT VNAR 3F7 (Chiloscyllium plagiosum (whitespotted bambooshark))
[2] = target: anti-OGT VNAR 2D9 (Chiloscyllium plagiosum (whitespotted bambooshark))
[3] = target: anti-OGT VNAR 4G2 (Chiloscyllium plagiosum (whitespotted bambooshark))

- Kd [1]: 53.4 nM
- koff [1]: 0.00106 s⁻¹
- kon [1]: 19800 M⁻¹ s⁻¹
- Kd [2]: 35.5 nM
- koff [2]: 0.000675 s⁻¹
- kon [2]: 19000 M⁻¹ s⁻¹
- Kd [3]: 89.7 nM
- koff [3]: 0.00076 s⁻¹
B1: recombinant ncOGT protein (O-GlcNAc transferase) (enzyme)
chain: MASSVGNVADSTEPTKRMLSFQGLAELAHREYQAGDFEAAERHCMQLWRQEPDNTGVLLLLSSIHFQCRRLDRSAHFSTLAIKQNPLLAEAYSNLGNVYKERGQLQEAIEHYRHALRLKPDFIDGYINLAAALVAAGDMEGAVQAYVSALQYNPDLYCVRSDLGNLLKALGRLEEAKACYLKAIETQPNFAVAWSNLGCVFNAQGEIWLAIHHFEKAVTLDPNFLDAYINLGNVLKEARIFDRAVAAYLRALSLSPNHAVVHGNLACVYYEQGLIDLAIDTYRRAIELQPHFPDAYCNLANALKEKGSVAEAEDCYNTALRLCPTHADSLNNLANIKREQGNIEEAVRLYRKALEVFPEFAAAHSNLASVLQQQGKLQEALMHYKEAIRISPTFADAYSNMGNTLKEMQDVQGALQCYTRAIQINPAFADAHSNLASIHKDSGNIPEAIASYRTALKLKPDFPDAYCNLAHCLQIVCDWTDYDERMKKLVSIVADQLEKNRLPSVHPHHSMLYPLSHGFRKAIAERHGNLCLDKINVLHKPPYEHPKDLKLSDGRLRVGYVSSDFGNHPTSHLMQSIPGMHNPDKFEVFCYALSPDDGTNFRVKVMAEANHFIDLSQIPCNGKAADRIHQDGIHILVNMNGYTKGARNELFALRPAPIQAMWLGYPGTSGALFMDYIITDQETSPAEVAEQYSEKLAYMPHTFFIGDHANMFPHLKKKAVIDFKSNGHIYDNRIVLNGIDLKAFLDSLPDVKIVKMKCPDGGDNADSSNTALNMPVIPMNTIAEAVIEMINRGQIQITINGFSISNGLATTQINNKAATGEEVPRTIIVTTRSQYGLPEDAIVYCNFNQLYKIDPSTLQMWANILKRVPNSVLWLLRFPAVGEPNIQQYAQNMGLPQNRIIFSPVAPKEEHVRRGQLADVCLDTPLCNGHTTGMDVLWAGTPMVTMPGETLASRVAASQLTCLGCLELIAKNRQEYEDIAVKLGTDLEYLKKVRGKVWKQRISSPLFNTKQYTMELERLYLQMWEHYAAGNKPDHMIKPVEVTESA
